Experimental data taken from publication PMC4574919, “Structural and Biochemical Analysis of a Single Amino-Acid Mutant of WzzBSF That Alters Lipopolysaccharide O-Antigen Chain Length in Shigella flexneri” (PLoS ONE, 2015).
Substitutions are numbered along the chain they refer to. In names and notes the source's numbering stands.

B1: periplasmic domain of WzzBSF (residues 54-295) (domain or fragment)
chain: EKWTSTAIITQPDVGQIAGYNNAMNVIYGQAAPKVSDLQETLIGRFSSAFSALAETLDNQEEPEKLTIEPSVKNQQLPLTVSYVGQTAEGAQMKLAQYIQQVDDKVNQELEKDLKDNIALGRKNLQDSLRTQEVVAQEQKDLRIRQIQEALQYANQAQVTKPQVQQTEDVTQDTLFLLGSEALESMIKHEATRPLVFSPNYYQTRQNLLDIEKLKFDDLDIHAYRYVMKPTLPIRRDSPKKA
notes: WzzBSF (polysaccharide co-polymerase, O-antigen chain length regulator) of Shigella flexneri, periplasmic domain, residues 54-295; Cloned in pMCSG7 by ligation-independent cloning; also called wild-type WzzBSF periplasmic domain; source: E. coli BL21(DE3), autoinduction, purified (HisTrap, TEV cleavage, reverse HisTrap, Superdex 200 SEC); not shown: His6, N-terminal, cleaved
B2: periplasmic domain of WzzBSF A107P (residues 54-295) (domain or fragment)
chain: B1 chain with A54P
notes: WzzBSF of Shigella flexneri, periplasmic domain, residues 54-295, with the mutation A107P found by random mutagenesis; Same construct limits as m1 ('the equivalent construct containing the A107P mutation'); also called A107P mutant; source: E. coli BL21(DE3), autoinduction, purified (HisTrap, TEV cleavage, reverse HisTrap, Superdex 200 SEC); not shown: His6, N-terminal, cleaved
B3: full-length WzzBSF (natural protein)
chain: MRVENNNVSGQNHDPEQIDLIDLLVQLWRGKMTIIISVIVAIALAIGYLAVAKEKWTSTAIITQPDVGQIAGYNNAMNVIYGQAAPKVSDLQETLIGRFSSAFSALAETLDNQEEPEKLTIEPSVKNQQLPLTVSYVGQTAEGAQMKLAQYIQQVDDKVNQELEKDLKDNIALGRKNLQDSLRTQEVVAQEQKDLRIRQIQEALQYANQAQVTKPQVQQTEDVTQDTLFLLGSEALESMIKHEATRPLVFSPNYYQTRQNLLDIEKLKFDDLDIHAYRYVMKPTLPIRRDSPKKAITLILAVLLGGMVGAGIVLGRNALRNYNAK
notes: WzzBSF of Shigella flexneri, wzzSF open reading frame in pRMCD30; ~36 kDa; also called wild-type WzzBSF; source: S. flexneri RMA4053 (wzz::kan), from plasmid pRMCD30 (pQE30-based), IPTG-induced, in whole cells

Key:
[1] = target: the molecule itself; assay: crystal structure; hanging drop, 18°C, 0.1 M citric-acid/HEPES/CHES pH 7.3, 18% PEG 400, 18% PEG 8000, 0.1 M MgCl2; protein 12-13 mg/ml; open trimer in the crystal
[2] = target: the molecule itself; assay: SDS-PAGE and immunoblot of non-cross-linked cells; whole S. flexneri cells incubated without formaldehyde (control), samples heated at 60°C for 5 min, 12% SDS-PAGE, immunoblot with anti-WzzBSF

| Protein | stoichiometry N [1] | stoichiometry N [2] |
| --- | --- | --- |
| B1 | 3 |  |
| B2 | 3 |  |
| B3 |  | 2 |
